Source: patent US9113649B2, “Food additive comprising an amidase for detoxifying ochratoxin” (DuPont Nutrition Biosciences ApS, priority 2010, dated 2015)
Read-outs that look alike come from different tables or passages of the source.

B1: PEPAd: a Danisco aspartic acid protease cloned from A. niger (protein)
chain: MHLPQRLVTAACLCASATAFIPYTIKLDTSDDISARDSLARRFLPVPNPSDALADDSTSSASDESLSLNIKRIPVRRDNDFKIVVAETPSWSNTAALDQDGSDISYISVVNIGSDEKSMYMLLDTGGSDTWVFGSNCTSTPCTMHNTFGSDDSSTLEMTSEEWSVGYGTGSVSGLLGKDKLTIANVTVRMTFGLASNASDNFESYPMDGILGLGRTNDSSYDNPTFMDAVAESNVFKSNIVGFALSRSPAKDGTVSFGTTDKDKYTGDITYTDTVGSDSYWRIPVDDVYVGGTSCDFSNKSAIIDTGTSYAMLPSSDSKTLHSLIPGAKSSGSYHIIPCNTTTKLQVAFSGVNYTISPKDYVGATSGSGCVSNIISYDLFGDDIWLLGDTFLKNVYAVFDYDELRVGFAERSSNTTSASNSTSSGTSSTSGSTTTGSSTTTTSSASSSSSSDAESGSSMTIPAPQYFFSALAIASFMLWL
modifications: Aspergillus niger
B2: carboxypeptidase A: Carboxypeptidase A from bovine pancreas (Sigma) (protein, listed as Bos taurus)
chain: MQGLLILSVLLGAALGKEDFVGHQVLRITAADEAEVQTVKELEDLEHLQLDFWRGPGQPGSPIDVRVPFPSLQAVKVFLEAHGIRYRIMIEDVQSLLDEEQEQMFASQSRARSTNTFNYATYHTLDEIYDFMDLLVAEHPQLVSKLQIGRSYEGRPIYVLKFSTGGSNRPAIWIDLGIHSREWITQATGVWFAKKFTEDYGQDPSFTAILDSMDIFLEIVTNPDGFAFTHSQNRLWRKTRSVTSSSLCVGVDANRNWDAGFGKAGASSSPCSETYHGKYANSEVEVKSIVDFVKDHGNFKAFLSIHSYSQLLLYPYGYTTQSIPDKTELNQVAKSAVEALKSLYGTSYKYGSIITTIYQASGGSIDWSYNQGIKYSFTFELRDTGRYGFLLPASQIIPTAQETWLGVLTIMEHTLNNLY
B3: yeast carboxypeptidase Y: Carboxypeptidase Y from baker's yeast (Saccharomyces cerevisiae) (protein, listed as Saccharomyces cerevisiae)
chain: MKAFTSLLCGLGLSTTLAKAISLQRPLGLDKDVLLQAAEKFGLNLDLDHLLKELDSNVLDAWAQIEHLYPNQVMSLETSTKPKFPEAIKTKKDWDFVVKNDAIENYQLRVNKIKDPKILGIDPNVTQYTGYLDVEDEDKHFFFWTFESRNDPAKDPVILWLNGGPGCSSLTGLFFELGPSSIGPDLKPIGNPYSWNSNATVIFLDQPVNVGFSYSGSSGVSNTVAAGKDVYNFLELFFDQFPEYVNKGQDFHIAGESYAGHYIPVFASEILSHKDRNFNLTSVLIGNGLTDPLTQYNYYEPMACGEGGEPSVLPSEECSAMEDSLERCLGLIESCYDSQSVWSCVPATIYCNNAQLAPYQRTGRNVYDIRKDCEGGNLCYPTLQDIDDYLNQDYVKEAVGAEVDHYESCNFDINRNFLFAGDWMKPYHTAVTDLLNQDLPILVYAGDKDFICNWLGNKAWTDVLPWKYDEEFASQKVRNWTASITDEVAGEVKSYKHFTYLRVFNGGHMVPFDVPENALSMVNEWIHGGFSL
B4: amidase from Metarhizium anisopliae: putative amidohydrolase from Metarhizium anisopliae (EFZ00058) expressed intracellularly in Trichoderma reesei (protein, listed as Metarhizium anisopliae)
chain: MTRRVIPHSESAESVDDAQHVSGRIYSTGFGIAVRTGQPQSQDDDAETGVKKVFYTIVMTKLLIPGDGEPIKDAALVVKNKIIDWVGRQADLPNEYTEKPHKLHNVPYLMPGLWDCHVHFAGSNGEREAEEGSTGLSFLADHPTTAGARLARGCWDAIQRGYTSMRDLAGFGCEISKAIEDGVIIGPNIYSAGACLSQLAGHGDVFALPAGDALLNLGLASVKAGQFGAGMSCLVDGVDECRRGVRLQIRRGAKCIKVMASGGVLSRDDNPLYAQFSREELDTIVSEAKRMERTVAAHVHGKPGILQAVEAGVTSVEHVSFADQECIDLIKDRGTIFVGTRTIVNLLLDSKGEGMPKKMWEKAKLVGTHSLEGYKKAIKAGCTIALGTDTEPGFNMAIELQYAVEAGMSSLEAIKAATANGPLTVAGQAPLTGQLKAGYEADMIGVCDNPVEDVKVLQKKSNIGWVWKGGKLFKGPGIGPWGEEL
B5: amidase from Glomerella graminicola: putative amidohydrolase from Glomerella graminicola (EFQ25792) expressed intracellularly in Trichoderma reesei (protein, listed as Glomerella graminicola)
chain: MGGSFRPNYADGPEPPFSPTKKTTLVIIKTSLLIPGDGEPLKDGALVISSKVIAWVGPQSSLPSEYADSPHRSYTVPYLMPGLWDCHAHFGGESPNDDGGNDPYQVFITEHPAASGARLTRGCWLALQRGYTSLRDVAGLGCEVSRAIEDGSIVGPNVYSSGSGLSQLAGHGDIFSLPAGDVLLNLGVSQITPGHFGTHATMIVDGVDECRRAVRLQIRRGAKCIKVMASGGVMSRDDNPNYAQFSAAELETIVEEATRQNRVVAAHVHGKAGILAAINAGVTTLEHASFADRECIDLIKEKGIVYIATRIVVHLLLSTGGKGLPPTVWEKAKLVAKNHMTAYKMAIESGVQIALGTDTGPGYNMATELECAVEAGMSNLEAIKAATANGPLSVGGQAPKTGQLKVGYEADVIGLLQNPVEDVKVLQKVDNVGWVWKGGKLFKGPGVGPWGEEPGVWEDITGVSRLRCTTGY
B6: amidase from Aspergillus oryzae: hypothetical protein from Aspergillus oryzae (XP_001826758) expressed intracellularly in Aspergillus niger (protein, listed as Aspergillus oryzae)
chain: MHRMLTDDRLYRVDADLLIPGKGDPIPHGAVVWQCKTIRYAGPRSGVPTEFQGATTTHVPVVMPGMWDCHIHFLGATAATMNAIVDTPQALAGARSVPDLHATVMAGFTSVREVGGYGCDLAKAVGEGRIPGPNIYSSHSAISMTAGHGDVHGVHRDSLLDLCAHGLPLTIADGVPECLLAVRKQLRRGAKVIKVCASGGVVSAIDDPQHQEFSFEELKAIVDEAARARRVVAAHCHGKAGIMNALRAGCRTIEHGSFLDEEAVGLMKEKGAILVATRSVIESGLAMKDLFTPSSYQKLLAVADAHRKAYQLAISRGVTIALGTDQFISSDNPMIGYGRNGHEVRYAVDAGLTPLAAIEAATANGPLTLGYQAPQSGQLKEGYDADIIAVRENPLENVAVLSNSKNVTHVWRGGMLIKS

Assays:
[1] = rat, in vivo; cited from earlier work
[2] = type: biochemical; conditions: for ability to degrade ochratoxin A: enzyme screen, 20 h
Description: Activity was expressed in % OT-α (product of OTA) area: the area corresponding to the product divided by the total area (peak area of OTA plus OT-α).
The buffers employed in the assay were: 50 mM sodium acetate buffer (pH 4, 4.5, 5 and 5.5); 50 mM MES buffer (pH 6, 6.5 and 7); 0.2M Mops-NaOH) pH7.0), 50 mM Tris-HCl buffer (pH 7.5, 8 and 8.5). Ochratoxin A (OTA) solution (1 mg/mL) was made of 5 mg ochratoxin A (Sigma, ref. 32937) dissolved in ethanol/water (60/40) and stored at −20° C. Screening assays were performed with […] OTA solution and different enzyme concentrations (for example, 0.1-5 mg/ml) in a final volume of 300 μL. Enzymatic reactions were done at 37° C. for 20 h±1 h under constant agitation. Samples were filtered using syringe filter 0.20 μm for HPLC analysis. The HPLC apparatus consisted of a Dionex P580 pump and Dionex ASI-100 autosampler connected to a Dionex RF-2000 fluorescence detector (λex=333 nm; λem=460 nm) and a Dionex UVD340 U UV detector at 257 nm. Elution was through a nucleosil 100-5 C18 column (250×4.6 mm, 5 μm particle size; Chrompack) with water/acetonitrile/acetic acid (100:100:1, v/v/v) at a 0.6 mL/min flow-rate. The column was kept at 30° C. and was connected to guard column (C18, 1 mm, Optimize technologies). The OTA and its degradation products were monitored both by uv at 235 nm and fluorescence (excitation at 278 nm emission at 440 nm).
Thirty enzymes including various lipases, proteases and amdiases were investigated for their ability to degrade ochratoxin A (Table 1). […] To facilitate the comparison of these three enzymes, the protein concentration of PEPAd was determined and enzyme solutions of carboxypeptidase A and Amano™ lipase A were prepared at the same concentration (1 mg/ml). A kinetic of the degradation was carried out (FIG. 1). […] Amano™ lipase A product was a mixture of different enzymes with the dominant activity being lipase. […] Other proteases, lipases and amidases listed in Table 1 were not able to break OTA down (data not shown).

[3] = Abrunhosa et al., Toxins 2010; cited from earlier work
[4] = activity of three fungal amidases on ochratoxin A (intracellular cell-free fraction); type: biochemical; conditions: for Activity on ochratoxin A expressed as ochratoxin A peak area: remaining OTA, 20 μl intracellular cell-free fraction, pH7, 23° C., 17 h
Description: The reaction mixture using OTA as substrate consisted of 75 μl phosphate (67 mM, pH7), 5 μl OTA (2.4 μg/ml) and 20 μl intracellular cell-free fraction. The reaction was performed at 23° C. for 17 h and stopped by adding 0.15 ml acetonitrile and analyzed on HPLC with an injection volume of 5 μl.

Molecule	ability to degrade ochratoxin A ([2]; 37° C.)	Activity on ochratoxin A expressed as ochratoxin A peak area [4]	further results
C[C@@H]1Cc2c(Cl)cc(C(=O)N[C@@H](Cc3ccccc3)C(=O)O)c(O)c2C(=O)O1 [OTA, ochratoxin A]			elimination half-time in the body [1]: 103 h
C[C@@H]1Cc2c(Cl)cc(C(=O)O)c(O)c2C(=O)O1 [ochratoxin α]			elimination half-time in the body [1]: 9.6 h
porcine elastase: serine protease elastase from porcine pancreas (Sigma E0258) [reference compound]	showed certain activity with OTA		
B1	showed an OTA converting activity although this was less efficient		conversion of OTA ([2]; after 1 day reaction, 37° C., same protein concentration (1 mg/ml)): full conversion was not reached
B2	able to breakdown OTA		conversion of OTA ([2]; after 7 h reaction at 37° C., enzyme 1 mg/ml): full conversion of OTA was obtained; ochratoxin degrading activity [3]: low ochratoxin degradding activity
B3	showed certain activity with OTA		ochratoxin degrading activity [3]: low ochratoxin degradding activity
B4		0.96	activity in degrading ochratoxin A (in words) [4]: showed activity in degrading ochratoxin A
B5		0.68	
B6		8.57	
